Assay results: the DeepSol protein solubility set

Assay: soluble on expression in E. coli; label from the status in PepcDB or PDB records

Sequence	soluble on expression in E. coli
MREQISVLTQNLSQTIVGKDEAIRLVLVALLSGGHALLEDVPGVGKTLLAKSLARSINGKFQRVQCTPDLLPTDITGTNIWNPSSREFEFLPGPAFANILLADEINRATPRTQAALLEVMEEKQVTVDGETRLVPHPFFVIATQNPIEYQGTFPLPEAQLDRFALSLSLGYPSEAEELKMLQRQQNPEAIAVGDLESCISLEEVEALQKAVRQVKLTEDLQQYLLRLVRASRTDEDVTLGVSPRGTTALQRATQAFAFLEERDYAIDDDVKFVAPHVLAHRLIPASGKDPKAILQRLLDSVPILEHHHHHH	not soluble
MSLKTIAIDFETANEERGSACSVGLAWIEDGQIVRVEERLIRPRDMRFSPFNIAVHGIRPRDVEDAPEFPEVMEEFIDDFHGATMIAHNAAFDFSVMRASFDKYRLSYPDLSYLCSVKIARHVWPHLVSHKLNVIAHHLQLRFVHHNAAEDAVVCAAASIAAARALGVAHIRDLPEKIGEGHHHHHH	not soluble
SFALEELPRIPDFTERAICELFELYASIESVQLPPQSSDATNSSSATAPGNIFSAERGPRYLGPRALVRFFTELGVDMRSLAALAFAWLGRWQYPCHCREEGFARGVRYALWALDRRQHNEPRRWEQVQATCSTLLETSIWPRESTALFERLRSAFPDAVLSYTQRSAEAALDFYLFAFDLNRQSPYRRSLSLTDARYLWKQFLSESCYLATPASPGTPAGVANQPWRYLEHFDAYLESRCGMAGTIISRDTWYWVLMFARETQVAGSSFFANYNQGDAWPVLLDGFVEYLRENKLLSS	soluble
MGSDKIHHHHHHMPAALPIKPPFKPRDISIVGAGVAGASLALSLLRRGHKVTLYCADAAPGIGASGNRQGAIYPLLTPEDDHLTRLFVPAFLYAKRFVESLAHHPLPFDFCGVLQTGHDERATERIEKLLSKTWPKQVAVRVDADEANHIAGVAIDKGGIYYPQGGWVSPAKLCEAAIEEAKTMGLECHFDVNITSITRADEGWRLNTQTGEIDAHELVLATGHRITELAQTKSLQLAPFRGQVSHVPTRGKLEQLKTVLCAHGYFTPRDASSGSHCMGASYVRGDTSVEYREQEQQENLHKMQESYPGKDWVEYLDISEGSARAGIRMVSRDHLPMAGAAPDVAAIQTQYQAIGHGPKGAQYWQTHAAPVHPGLYIFSGLGSRGLSSGPLIAECLADSLSGTLPVLDGDVMEALNPNRMWLRKLKKGKALD	not soluble
MGSDKIHHHHHHMSHLALQPGFDFQQAGKEVLEIEREGLAELDQYINQHFTLACEKMFNCTGKVVVMGMGKSGHIGRKMAATFASTGTSSFFVHPGEAAHGDLGMVTPQDVVIAISNSGESSEIAALIPVLKRLHVPLICITGRPESSMARAADVHLCVKVPKEACPLGLAPTSSTTATLVMGDALAVALLKARGFTAEDFALSHPGGALGRKLLLRVSDIMHTGDEIPHVNKHATLRDALLEITRKNLGMTVICDESMKIDGIFTDGDLRRVFDMGGDMRQLGIAEVMTPGGIRVRPGILAVDALNLMQSRHITSVLVADGDQLLGVLHMHDLLRAGVV	not soluble
MSSEKEYVEMLDRLYSKLPEKGRKEGTQSLPNMIILNIGNTTIIRNFAEYCDRIRREDKICMKYLLKELAAPGNVDDKGELVIQGKFSSQVINTLMERFLKAYVECSTCKSLDTILKKEKKSWYIVCLACGAQTPVKPL	soluble
MHHHHHHSSGVDLGTENLYFQSMKIAVIGQSLFGQEVYCHLRKEGHEVVGVFTVPDKDGKADPLGLEAEKDGVPVFKYSRWRAKGQALPDVVAKYQALGAELNVLPFCSQFIPMEIISAPRHGSIIYHPSLLPRHRGASAINWTLIHGDKKGGFSIFWADDGLDTGDLLLQKECEVLPDDTVSTLYNRFLFPEGIKGMVQAVRLIAEGKAPRLPQPEEGATYEGIQKKETAKINWDQPAEAIHNWIRGNDKVPGAWTEACEQKLTFFNSTLNTSGLVPEGDALPIPGAHRPGVVTKAGLILFGNDDKMLLVKNIQLEDGKMILASNFFK	soluble
GRGSEHLTIGFKVENAHDRILKTIKTHKLKNYIKESVNFLNSGLTKTNYLGSSNDNIELVDFQNIMFYGDAEVGDNQQPFTFILDTGSANLWVPSVKCTTAGCLTKHLYDSSKSRTYEKDGTKVEMNYVSGTVSGFFSKDLVTVGNLSLPYKFIEVIDTNGFEPTYTASTFDGILGLGWKDLSIGSVDPIVVELKNQNKIENALFTFYLPVHDKHTGFLTIGGIEERFYEGPLTYEKLNHDLYWQITLDAHVGNIMLEKANCIVDSGTSAITVPTDFLNKMLQNLDVIKVPFLPFYVTLCNNSKLPTFEFTSENGKYTLEPEYYLQHIEDVGPGLCMLNIIGLDFPVPTFILGDPFMRKYFTVFDYDNHSVGIALAKKNL	soluble
MSQKQEEENPAEETGEEKQDTQEKEGILPERAEEAKLKAKYPSLGQKPGGSDFLMKRLQKGQKYFDSGDYNMAKAKMKNKQLPSAGPDKNLVTGDHIPTPQDLPQRKSSLVTSKLAGGQVE	soluble
MKLLLLLCISCIPLAYSHDGEPFDYLMFTTIYPTAVCRADDDSVPESCEIPSGTPQWSIHGLWPNFENGSYPQNCRGTPRHFDENLIKSIEDRLVVVWPNLYPKKTIQSFWKHEYDKHGTCAQSEKLFESELAYFTEVMKVFDSIDVAGGLKSVGPSEKPITSSDLKNALSGVTSGKTFQFHCLRDKKTKQFLLGDIRLCLNKDLTIRDCPTDGKHPNRVSRFERSIGRNRRGPPLPSFQPCPAEFIYLPEMSSISKSSDSTSPSIFGRIWSAIKNIGN	not soluble
MPHTNGKGGGAQKWAGNNKRKRNFDGEQDPSVRKALKEKRLLKKRKQDLKGQEETMLDEVEQKYQEMLKKSSRTFLRFEDFPLSWRTLEGLKDNDYTKPTEIQRDTIAYSLTGSDVVGAAKTGSGKTLALVIPVLEALWRAKWSPDYGLGALIISPTRELALQTFSTINAVGAHHGFSCGLVIGGSDVAFERNRISGINIIVCTPGRLLQHMDENAQMSCDSLQVLVLDEADRMLDMGFSKQLNSIINNLPAERQTLLFSATQTRNVKDLCRVCTNDPVFVSVHENASAATPDNLKQSYVIVEEEHKINALWSFIEAHRKKKSLVFVSSCKQARFLTEAFSQLRPGLPVMGLWGTMNQKKRIETFTKFDESKAAVLIATDVASRGLDFEHIDWVIQVDCPAQIDDYIHRVGRSARMDDSGNSLLMVSPSQEEAMIGKLEKHSIPIEELKIHPDAMSDVRVKLRAILAESQELKEYAQKSIVAYLRSIYTMKDKKVFDVEAIDAAALADSFGLVSVPRVRFLNKKAKKSGEKLMEKEVKEEEEEASLVGKFAIDEDDEDIFTVKKPTGEPEQIKEEEAAEKISNITISKTKPLKKAVTKVSAAKKILNKKLKVNTKKTFGAEDDELEELEEGPSTITSYGLDIEKARQEIKSGDKEDRKRFKLLREQRRQEKLAKKNRRAEEEEAVEYDEDGSEDEPDISWLPDPDAVRRKYEEEPDEVEDLEQQALAALGRK	not soluble
TQGERRQAEQLAVQTARTISYMPPVKELIERKDGHAAQTQEVIEQMKEQTGAFAIYVLNEKGDIRSASGKSGLKKLERSREILFGGSHVSETKADGRRVIRGSAPIIKEQKGYSQVIGSVSVDFLQT	not soluble
MGSDKIHHHHHHLSQSTPDLLTKQLRYTDYLRANGIPFMKCVKPTDEALFTTIMDSIGQEWTCCLFHWIDGHHVTANTEQTAARMGQLARQLHDVSLHEQEIQFPFIDHTVTYQRWLGDLQRLSASRMPEPVQNSFQEYLTLAQQHLDTARLPKSSSLQPVISTDLNSLNVLWDSDQHIVGIVDHEHIGATDRVQDLAWLIKWYARTEGIDSHDVSGRLAKSLLTHYNSPTLLVPKEDPRLASLLWLSGCMNLHFVERTKQLAFDAENNPVGYDQFQLHLQTYRLRGERLVGLLT	not soluble
MKEKSIEDIVFEKFQPYINWSIDKLCEHFSINKGEKGLNYRIASAILNLKGKTTKSKPFPEVEEFEKSSIVVKTVHFNKKNVNKESMSFGAFKFEELANEEWEDSEGYPSAQWRNFLLETRFLFFVVKEDEDGVDIFKGIKFFSMPEEDINGPVKRMWDDTVKKLKEGVTLEAVPDKSTKDGWRIKNNFVDKSDDLICHVRPHTNNRDYRGGSNADKLPKKINWINRPDSDDYSDEWMTKQSFWINNDYIKKQVEDLL	soluble
GSHMVEMRMKKCPKCGLYTLKEICPKCGEKTVIPKPPKFSLEDRWGKYRRMLKRALKNKNKAE	soluble
MAHHHHHHMEGFPLGLAVIIDPPREKESGAMVEAHAARDNGSAAGSLSNGETNTADTGGDAYSGHSINNREQVPIALHNVCPTRFLWSRYEENGGMLLHMPRSKVCREHRKGLCRFGNECSFLHVCRQMPIGSGDEELLSHSRTPLRHSTVQGSMQDFSHPPSFATASGSLCHHAHSQSYSQANLQHFQGSTVMSQNGSYMDGSLGNSQTGSRPHLSRAPTASESYGGHQPLLRPLGGVQNSHSSVAARGSFSHNPYAEASSFQS	not soluble
MSLNNLEKASRLIDEENNYYARSARINYYDLVINHAHGATLIDVDGNEYIDLLASASAINVGHTNERVVKAISRQAQKLIHYTPAYFHHVPGIELSKRLAELAPGNSPKMVSFGNSGSDANDAIIKFSRAYTSRQYIVSYMGSYHGSNYGSQSLSGTSLNMTRKIGPMLPGVVHVPYPDLYRRYAGETEHDVAIRYFNAFKAPFESFLPADETACVLVEPIQGDGGIVKAPEEYMQLVYKFCHDNGILFAVDEVNQGLGRTGKMWGIQQYKDIEPDLMSVGKSLASGMPLSAVVGKKDIMQSLDAPAHIFTTSGNPVCAAASLATLNVIRDDHLVEKSAKDGEYAKQRFLEMQRHHPIIGDVRMWGLNGGIELVKDPKTKEAENDAATKVIYYAFAHGVVIITLAGNILRFQPPLVISHKQLDKALQVLDDAFTAVEQNKVEVPKDTGKIGWEGHHHHHH	not soluble
MGSDKIHHHHHHMLNPLWLKTFITLVETGHFTQTASKLFMTQPGVSQHLNKLEQACGHQLLIRSRSGIELTEAGERLYQYALSQARAEAALLDSLDEDNPFSGSCRLACSGSLAQLLYPKLLALQAAHPGLKVHMEAAPNARIINEVQQGDKDLGIITAPPPRGLFSDTDIGTQALCLVLPASSEATTDDASLPSINELKVLGLISHPDAAHYLSLFFAHSGSPGYQNAFAEDFPISSYINQLGQILLPVSMGLGFTVLPLSVVEQFSERDKLRVCVGLERVFEPLYLIHKRQRQLPARFDTIRSLIQSVLTSTTDSPQ	not soluble
MSDGIPFAGEPADSHEAIMRATFRALREYGYAGLSIQRIADEADLSKSTFYHHFDGKEDLLLSFQEFILTEFNRIFQIESTGDPEQDIKTFVSLILDDFPDCVETPTKNAVLGSYVEMRAQAVQNPDFREKFTETDELFARQLVQIIEDGIEQGVFADVDPDTVSRFMITILDGVILQSATRNDNPVAEVRDTIDEYIEETLILNT	not soluble
MSEAESCEETSKEHRIWKKNVPYLYDTVVTKEVEWPSLSVQWMPDVTKTENSDSSMHRMIHGTHTCGGVQNHLMISKFTITTDTPEFDDAKWDSEREEFGGYGEGSAAKWDTEIKINHPGEVHRARYMPHNPFIIASRGPSDDVYIFDYTKHPSEPKDTKFRPQLRLKGHEGEGYGMSWSNTREGHLLTAGDDGMICHWDINANQTISGQIVPQSKFKGHSSNAEDVSFHALHNFVFGSVGDDRKLNLWDLRQSKPQLTAVGHTAEVNCITFNPFSEYILATGSVDKTVALWDMRNMRKKMYTLKHHNDEIFQVSFSPHYETVLASSGSDDRVIVWDISKIQDPSSSSAASSDSVPPEVIFIHAGHTGKVADFSWNPNRPWTICSSDEFNALQVWEVSNSLVSSEKWETEMI	not soluble
